These results are taken from publication PMC13082787, “A lipoprotein partner for the Escherichia coli outer membrane protein TolC” (eLife, 2026).

Values joined by “and” are separate entries in the source; they are usually repeats but may differ in a detail not shown here. Equal entries are not always repeated.

Test [1] concerns the target T1, Detergent-purified FLAG-tagged TolC (E. coli, UniProt P02930 23-493).
T1 construct: also called TolC-FLAG; source: detergent-purified
T1 sequence (looked up): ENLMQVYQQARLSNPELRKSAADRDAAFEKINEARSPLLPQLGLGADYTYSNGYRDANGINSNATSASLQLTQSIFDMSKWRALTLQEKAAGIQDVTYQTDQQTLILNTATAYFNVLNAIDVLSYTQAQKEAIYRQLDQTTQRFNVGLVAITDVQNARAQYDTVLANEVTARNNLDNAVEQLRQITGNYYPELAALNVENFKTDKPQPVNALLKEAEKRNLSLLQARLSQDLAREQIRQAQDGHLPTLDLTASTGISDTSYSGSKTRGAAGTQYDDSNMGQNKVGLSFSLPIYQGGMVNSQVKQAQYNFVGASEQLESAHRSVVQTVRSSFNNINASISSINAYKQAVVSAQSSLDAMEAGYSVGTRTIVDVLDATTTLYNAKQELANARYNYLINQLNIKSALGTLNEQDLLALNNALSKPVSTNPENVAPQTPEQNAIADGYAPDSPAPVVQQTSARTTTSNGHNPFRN
Put plainly: ITC; ITC200, 25°C; 230 µM N-terminally His-tagged soluble YbjP injected into 40 µM TolC; 20 mM HEPES pH 7.5, 200 mM NaCl, 0.03% DDM; single-site model. As to conditions: both partners purified. On the technique in general: Isothermal titration calorimetry measures the heat released or taken up as one component is titrated into another.

Test [2] concerns the target T2, TolC-FLAG (DDM-purified full-length TolC with a C-terminal FLAG-tag) (E. coli, UniProt P02930 23-493).
T2 construct: also called FLAG-tagged TolC; source: DDM-purified TolC-FLAG; not shown: FLAG, C-terminal, kept
T2 sequence (looked up): T1 sequence (looked up)
The experiment in a line: ITC; N-terminally His-tagged YbjPs at 230 µM injected into 40 µM TolC-FLAG in the cell; 25°C; 20 mM HEPES pH 7.5, 200 mM NaCl, 0.03% (wt/vol) DDM; single-site binding model; two independent measurements. Conditions: both partners purified.

B1: Soluble YbjP (D28-R171) with an N-terminal His-tag (domain or fragment, E. coli, UniProt P75818 28-171, looked up)
chain: DNGTRSGPCVEGGPDNVAQQFYDYRILHRSNDITALRPYLSDKLATLLSDASRDNNHRELLTNDPFSSRTTLPDSAHVASASTIPNRDARNIPLRVDLKQGDQGWQDEVLMIQEGQCWVIDDVRYLGGSVHATAGTLRQSIENR
notes: also called YbjPs; YbjP_(28-171); not shown: His tag, N-terminal, kept
For the molecule B1, the Kd in test [1] was ~4 µM.

B2: soluble YbjP (YbjPs), residues 28-171, N-terminally His-tagged (domain or fragment, E. coli, UniProt P75818 28-171, looked up)
chain: B1 chain
notes: also called YbjP_(28-171); YbjP soluble; source: E. coli BL21 (DE3), purified from the cytoplasm (HisTrap FF, dialysis); not shown: His-tag, N-terminal, kept
As for B2, in test [2], the Kd was 4.1 µM and 5.9 µM and 5 µM; the “stoichiometry N” value was 0.64 and 0.42 and 0.53.

In general, Kd refers to the concentration at which binding is half-saturated. Read a high Kd as a looser complex. A word on the stoichiometry N: it is a count of units in the complex or per binding partner.
